In test [1] the target is recombinant HA (rHA), subtype H2 (A/Swine/MO/06 (H2N3)) (influenza A virus). The experiment in a line: ELISA, coated rHA. (ELISA stands for enzyme-linked immunosorbent assay.)
Test [2] concerns the target recombinant HA (rHA), subtype H9 (A/chicken/HK/G9/97(H9N2)) (influenza A virus). The experiment in a line: ELISA, coated rHA.
In test [3] the target is recombinant HA (rHA), subtype H6 (A/teal/HK/W312/97(H6N1)) (influenza A virus). The experiment in a line: ELISA, coated rHA.
Test [4] has as its target recombinant HA (rHA), subtype H3 (A/Perth/16/09 (H3N2)) (influenza A virus). As to the kind of experiment: ELISA, coated rHA.
For test [5], the target named is recombinant HA (rHA), subtype H7 (A/Netherlands/219/03(H7N7)) (influenza A virus). The experiment in a line: ELISA, coated rHA.
Test [6] deals with recombinant HA (rHA), subtype H5 (A/Vietnam/1203/04(H5N1)) (influenza A virus). As to the kind of experiment: ELISA, coated rHA.
The target of test [7] is His-tagged HA subtype H3 (A/Perth/16/09 (H3N2)) (influenza A virus). As to the kind of experiment: Octet BLI, His-tagged HA on anti-His sensors. (In BLI a coated tip is dipped into the sample, and binding shifts an interference pattern.)
Test [8] has as its target His-tagged HA subtype H1 (A/California/7/04 (H1N1)) (influenza A virus). As to the kind of experiment: Octet BLI, His-tagged HA on anti-His sensors.

Where only a bound is given, the exact number is not on record here.

B1: Antibody 8 (antibody, V domains shown)
VH: QVQLQQSGPGLVKPSQTLSLTCVISGDTVSSNRATWNWMRQSPLRGLEWLGRTYYRSKWYNDYAVSVKSRVVINPDTSKNQVSLQLNTVTPDDSGVYFCARGGHITVFGVNIDAFDIWGLGTKVTVSS
VL: DIQMTQSPSSLSASVGDRVTISCRASQRLNSYLHWYQQTPGQAPKLLIYATSTLQSGVSPRFSGSGSGTDFTLTISSLQPEDVATYYCQLSRTFGHGTKVEIK
Usually EC50 stands for the midpoint of the concentration-response curve. For B1, the EC50 in test [1] is 0.058 µg/mL; in test [2] it was greater than 6 µg/mL; in test [3], 0.091 µg/mL; in test [4], 0.067 µg/mL; in test [5], 0.015 µg/mL; in test [6] it was 0.044 µg/mL.

B2: Antibody 10 (antibody, V domains shown)
VH: QVQLQQSGPGLVKPSQTLSLTCAISGDSVSSNSATWNWIRQSPSRGLEWLGRTYYRSKWYNDYADFLKRRITINPDTSNNEVSLRLTSVTPDDTALYYCARGGHITVFGVNIDAFDVWGQGTMVTVSS
VL: DIQMTQSPSSLSASVGDRITISCRTSQSLRSYLHWYQQKPGKAPKLLIYASSTLQSGVPSRFSGSGSGTDFTLTISNLQPEDFATYYCQLSRTFGQGTKVEIK
As for B2, the EC50 in test [1] came out at 0.075 µg/mL; in test [2] it was 2.7 µg/mL; in test [3], 0.097 µg/mL; in test [4] it was 0.049 µg/mL; in test [5] it was 0.034 µg/mL; in test [6], 0.058 µg/mL.

B3: Antibody 5 (antibody, V domains shown)
VH: QVQLQQSGPGLVKPSQTLSLTCAISGDRVSSNSAVWNWIRQSPSRGLEWLGRTYYRSKWYYDYAESVKSRIVIDPDTSKNQVSLQLNSVTPEDSAIYYCARGGHITVFGLNIDAYDIWGQGAMVTVSS
VL: DIQMTQSPSSLSASVGDRVTISCRAQSLSSYLHWYQQKPGQPPKLLIYAATTLQSGVPSRFSGSGSGTDFTLTISTFQAEDVATYYCQQSRTFGQGTKVEIK
In general, Kd refers to the concentration at which binding is half-saturated. Low values mean tighter binding, high ones weaker binding. For orientation: koff means a measure of how fast the partners let go of each other. Low readings indicate a long-lived complex, high ones a short-lived complex. Usually kon stands for the rate constant with which the complex forms. Take B3: the values for the Kd in test [7] and in test [8] were 0.338 nM and 0.005 nM, respectively. Also, the koff in test [7] is 8.8e-05 s⁻¹; in test [8] it was less than 5e-06 s⁻¹. Moreover, the on-rate (kon) was found to be 260000 M⁻¹ s⁻¹ in test [7] and 1e+06 M⁻¹ s⁻¹ in test [8]. The EC50 is 0.048 µg/mL in test [1]; greater than 6 µg/mL in test [2]; 0.047 µg/mL in test [3]; 0.03 µg/mL in test [4]; 0.024 µg/mL in test [5]; 0.041 µg/mL in test [6].

B4: Antibody 6 (antibody, V domains shown)
VH: QVQLQQSGPGLVKPSQTLSLTCAISGDRVSSNSAVWNWIRQSPSRGLEWLGRTYYRSKWYYDYAESVKSRIVIDPDTSKNQVSLQLNSVTPEDSAIYYCARGGHITEFGLNIDAYDIWGQGAMVTVSS
VL: DIQMTQSPSSLSASVGDRVTISCRAQSLSSYLHWYQQKPGQPPKLLIYAATTLQSGVPSRFSGSGSGTDFTLTISTFQAEDVATYYCQQSRTFGQGTKVEIK
As for B4, the EC50 was 0.213 µg/mL in test [1]; greater than 6 µg/mL in test [2]; 0.214 µg/mL in test [3]; 0.064 µg/mL in test [4]; 0.116 µg/mL in test [5]; 0.256 µg/mL in test [6].

Source of the values: patent US20160257732A1.
